Source: paper PMC5441903, “The E3 ligase ABI3-INTERACTING PROTEIN2 negatively regulates FUSCA3 and plays a role in cotyledon development in Arabidopsis thaliana” (Journal of Experimental Botany, 2017)

T1: GST–FUS3 (Arabidopsis thaliana, UniProt Q9LW31 1-313)
T1 construct: FUSCA3 (FUS3), Arabidopsis thaliana, At3g26790; GST fusion of ~66 kDa, construct described in Lu et al. (2010); probably the whole FUS3; also called glutathione S-transferase (GST)–FUS3; source: recombinant, purified (glutathione resin)
T1 sequence (looked up): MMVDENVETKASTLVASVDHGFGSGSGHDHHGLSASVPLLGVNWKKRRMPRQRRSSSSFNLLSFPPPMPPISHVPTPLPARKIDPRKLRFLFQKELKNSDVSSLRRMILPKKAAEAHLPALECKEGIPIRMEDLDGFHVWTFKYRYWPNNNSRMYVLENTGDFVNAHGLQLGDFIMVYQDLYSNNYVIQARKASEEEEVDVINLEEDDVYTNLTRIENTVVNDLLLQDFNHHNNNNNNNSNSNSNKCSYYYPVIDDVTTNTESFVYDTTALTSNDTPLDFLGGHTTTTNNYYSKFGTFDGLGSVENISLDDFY


Target: T1, GST–FUS3
Assay: pull-down; purified GST–FUS3 as bait, purified AIP2-6×His variants as prey; glutathione resin; immunoblots with anti-His and anti-GST
Conditions: both partners purified

binding result | Binder
binds | FLAG-AIP2-6×His (natural protein, Arabidopsis thaliana, UniProt Q8RXD3 1-310, looked up, tagged protein of ~40 kDa; also called AIP2-His; source: cloned into pET28, purified (Ni-NTA-agarose)) MDASSSPSPSEESLKLELDDLQKQLNKKLRFEASVCSIHNLLRDHYSSSSPSLRKQFYIVVSRVATVLKTRYTATGFWVAGLSLFEEAERLVSDASEKKHLKSCVAQAKEQLSEVDNQPTESSQGYLFEGHLTVDREPPQPQWLVQQNLMSAFASIVGGESSNGPTENTIGETANLMQELINGLDMIIPDILDDGGPPRAPPASKEVVEKLPVIIFTEELLKKFGAEAECCICKENLVIGDKMQELPCKHTFHPPCLKPWLDEHNSCPICRHELPTDDQKYENWKEREKEAEEERKGAENAVRGGEYMYV
binds | AIP2^(C/S,E/G)-6×His (inactive AIP2 variant) (natural protein, Arabidopsis thaliana, UniProt Q8RXD3 1-310, looked up, ~40 kDa; Probably the same FLAG-...-6×His construct as m5 with the three mutations; source: recombinant, purified) MDASSSPSPSEESLKLELDDLQKQLNKKLRFEASVCSIHNLLRDHYSSSSPSLRKQFYIVVSRVATVLKTRYTATGFWVAGLSLFEEAERLVSDASEKKHLKSCVAQAKEQLSEVDNQPTESSQGYLFEGHLTVDREPPQPQWLVQQNLMSAFASIVGGESSNGPTENTIGETANLMQELINGLDMIIPDILDDGGPPRAPPASKEVVEKLPVIIFTEELLKKFGAEAESSICKGNLVIGDKMQELPCKHTFHPPCLKPWLDEHNSCPICRHELPTDDQKYENWKEREKEAEEERKGAENAVRGGEYMYV
